Measurements reported in patent CN112500484A (MEDX TRANSLATIONAL MEDICINE CO LTD, dated 2021).

Target: T1, 人TROP2蛋白C端合成多肽 Arg299-Leu323, 裸肽 (not coupled to KLH) (human)
T1 construct: also called 抗原多肽
T1 peptide: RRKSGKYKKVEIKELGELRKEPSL
Assay: indirect ELISA screen of transiently expressed antibodies

B1: MJ1-1抗体 (rabbit anti-human TROP2 monoclonal antibody) (antibody, V domains shown)
VH: QSVEESGGRLVTPGTPLTLTCTVSGIDLSSDAIFWVRQAPGEGLKYIGFIHPAGVTYYAAWARGRFTISRTSTTVDLKMTRLTTEDTATYFCGRYFGYASIDIWGPGTLVTVSS
VL: AQVLTQTPSSTSAAVGGTVTINCQSSQNVYDKNQLSWFQQKPGQPPKLLIYKASTLASGVPSRFSGSGSGTQFTLTISGVECDDAATYYCAGVYTGNIYTFGGGTEVVVKG
notes: also called MJ1-1单克隆抗体; 抗TROP2抗体
  binding result: binds
